Values of other authors as cited in patent US20190351003A1, “METHODS FOR INHIBITING NONALCOHOLIC STEATOHEPATITIS, NONALCOHOLIC FATTY LIVER DISEASE, AND/OR DE NOVO LIPOGENESIS” (The Regents of the University of California, priority 2017, published 2019).
Where no end group is shown, it is not given here. The star is where a group is joined. CH2F = FC*

Molecular target: T1, caspase-2 (Homo sapiens, UniProt P42575)
T1 sequence (P42575 1-452): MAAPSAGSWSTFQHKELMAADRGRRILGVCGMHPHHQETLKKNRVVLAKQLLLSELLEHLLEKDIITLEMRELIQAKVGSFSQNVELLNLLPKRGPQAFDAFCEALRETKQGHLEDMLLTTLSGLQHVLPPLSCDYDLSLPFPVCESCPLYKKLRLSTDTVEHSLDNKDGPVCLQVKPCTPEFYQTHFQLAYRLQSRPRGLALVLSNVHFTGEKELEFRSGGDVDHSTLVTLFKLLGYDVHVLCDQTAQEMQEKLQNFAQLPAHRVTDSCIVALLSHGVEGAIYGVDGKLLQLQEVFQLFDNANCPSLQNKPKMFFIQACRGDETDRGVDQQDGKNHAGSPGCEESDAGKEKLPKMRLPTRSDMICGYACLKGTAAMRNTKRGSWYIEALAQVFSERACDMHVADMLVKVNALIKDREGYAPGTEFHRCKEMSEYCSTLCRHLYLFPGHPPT
Conditions: cell-permeable peptide; fluoromethylketone derivative; cited from earlier work

VDVAD (VDVAD-CH2F) [available as a fluoromethylketone derivative]
activity of caspase-2: irreversibly inhibits
